From paper PMC6286387, “Physical and thermodynamic characterization of the rice gibberellin receptor/gibberellin/DELLA protein complex” (Scientific Reports, 2018)

How the values were obtained:
[1] = molecular target: SLR1(M1-E104), Trx-free (rice (Oryza sativa)) (UniProt Q7G7J6); assay: ITC; 10 μl aliquants of 400 μM OsGID1/GA3 into 1.4482 ml of 50 μM SLR1 variant, 30 °C, 20 mM sodium phosphate (pH 7.5), 150 mM NaCl, 2.0 mM β-ME, 0.1 mM GA3
SLR1(M28-A112), Trx-free [2] = molecular target: T1, SLR1(M28-A112), Trx-free (rice (Oryza sativa), UniProt Q7G7J6 28-112); assay: as above; settings: both partners purified
T1 construct: DELLA protein SLR1 of rice (Oryza sativa), residues M28-A112; 13C/15N-labelled for the NMR spectra; also called SLR(M28-A112); source: E. coli, purified (HiTrap Chelating, Superdex 200; thrombin, HiTrap Chelating, Superdex 75); not shown: Trx, N-terminal, cleaved; His6, N-terminal, cleaved
T1 sequence (looked up): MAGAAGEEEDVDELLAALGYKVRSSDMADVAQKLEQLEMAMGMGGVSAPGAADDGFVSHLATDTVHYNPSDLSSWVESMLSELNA

SLR1(M28-A112), Trx-free [3] = molecular target: T1, SLR1(M28-A112), Trx-free; assay: as above; settings: both partners purified; remark: listed apart in the source
SLR1(M1-H327) = molecular target: T2, SLR1(M1-H327) (rice (Oryza sativa), UniProt Q7G7J6 1-327); assay: as above; settings: both partners purified
T2 construct: DELLA protein SLR1 of rice (Oryza sativa), residues M1-H327; Named without Trx in the ITC experiments; removal of the tag is told in general in the methods; also called SLR(M1-H327); source: E. coli, purified (HiTrap Chelating, Superdex 200; thrombin, HiTrap Chelating, Superdex 75); not shown: Trx, N-terminal, cleaved; His6, N-terminal, cleaved
T2 sequence (looked up): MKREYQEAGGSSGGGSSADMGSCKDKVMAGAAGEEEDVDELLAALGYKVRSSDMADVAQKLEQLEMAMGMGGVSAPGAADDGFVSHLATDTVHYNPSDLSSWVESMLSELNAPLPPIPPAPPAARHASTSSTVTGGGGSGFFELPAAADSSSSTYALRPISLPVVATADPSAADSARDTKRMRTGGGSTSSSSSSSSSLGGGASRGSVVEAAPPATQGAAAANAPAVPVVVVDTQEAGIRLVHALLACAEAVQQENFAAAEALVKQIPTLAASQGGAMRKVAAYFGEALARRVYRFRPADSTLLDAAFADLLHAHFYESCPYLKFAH

SLR1(M1-A172) = molecular target: T3, SLR1(M1-A172) (rice (Oryza sativa), UniProt Q7G7J6 1-172); assay: as above; settings: both partners purified
T3 construct: DELLA protein SLR1 of rice (Oryza sativa), residues M1-A172; Named without Trx in the ITC experiments; removal of the tag is told in general in the methods; also called SLR(M1-A172); source: E. coli, purified (HiTrap Chelating, Superdex 200; thrombin, HiTrap Chelating, Superdex 75); not shown: Trx, N-terminal, cleaved; His6, N-terminal, cleaved
T3 sequence (looked up): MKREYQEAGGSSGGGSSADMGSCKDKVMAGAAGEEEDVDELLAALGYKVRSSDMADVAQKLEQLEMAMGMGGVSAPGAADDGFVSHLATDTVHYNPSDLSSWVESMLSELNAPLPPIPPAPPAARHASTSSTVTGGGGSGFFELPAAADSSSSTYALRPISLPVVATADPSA

[4] = molecular target: T4, SLR1(M28-A112) ΔSPACE(G69-F83) (rice (Oryza sativa), UniProt Q7G7J6 28-112, ΔSPACE(G69-F83)); assay: as above; settings: both partners purified
T4 construct: DELLA protein SLR1 of rice (Oryza sativa), residues M28-A112 with G69-F83 deleted; Named without Trx in the ITC experiments; removal of the tag is told in general in the methods; also called SLR(M28-A112)ΔSPACE; source: E. coli, purified (HiTrap Chelating, Superdex 200; thrombin, HiTrap Chelating, Superdex 75); not shown: Trx, N-terminal, cleaved; His6, N-terminal, cleaved
T4 sequence (looked up): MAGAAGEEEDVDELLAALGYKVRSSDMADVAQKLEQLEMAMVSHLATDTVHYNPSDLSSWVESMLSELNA

SLR1(M28-A112), Trx-free [5] = molecular target: T1, SLR1(M28-A112), Trx-free; assay: SAXS; Trx-free proteins, about 3.0 mg/ml, 20 mM sodium phosphate (pH 7.5), 150 mM NaCl, 2.0 mM β-ME, 0.1 mM GA3, 25 °C; mass from I(0), Guinier and Kratky plots; settings: both partners purified
[6] = molecular target: the molecule itself; assay: as above

Ka [1]: 11000 M⁻¹
dH [1]: -8.4 kcal/mol
stoichiometry N [1]: 1
dH (SLR1(M28-A112), Trx-free [2]): -8.44 kcal/mol
stoichiometry N (SLR1(M28-A112), Trx-free [2]): 0.92
dH (SLR1(M28-A112), Trx-free [3]): -6.9 kcal/mol
stoichiometry N (SLR1(M28-A112), Trx-free [3]): 1.06
dH (SLR1(M1-H327)): -7.1 kcal/mol
stoichiometry N (SLR1(M1-H327)): 1.01
dH (SLR1(M1-A172)): -6.8 kcal/mol
stoichiometry N (SLR1(M1-A172)): 1.06
dH [4]: -8.3 kcal/mol
stoichiometry N [4]: 0.5
stoichiometry N (SLR1(M28-A112), Trx-free [5]): 1
B1: OsGID1 (rice gibberellin receptor GID1), Trx-free, used as the OsGID1/GA3 complex (receptor, rice (Oryza sativa), UniProt Q6L545 1-354, looked up)
chain: MAGSDEVNRNECKTVVPLHTWVLISNFKLSYNILRRADGTFERDLGEYLDRRVPANARPLEGVSSFDHIIDQSVGLEVRIYRAAAEGDAEEGAAAVTRPILEFLTDAPAAEPFPVIIFFHGGSFVHSSASSTIYDSLCRRFVKLSKGVVVSVNYRRAPEHRYPCAYDDGWTALKWVMSQPFMRSGGDAQARVFLSGDSSGGNIAHHVAVRAADEGVKVCGNILLNAMFGGTERTESERRLDGKYFVTLQDRDWYWKAYLPEDADRDHPACNPFGPNGRRLGGLPFAKSLIIVSGLDLTCDRQLAYADALREDGHHVKVVQCENATVGFYLLPNTVHYHEVMEEISDFLNANLYY
notes: Gibberellin receptor GID1 of rice (Oryza sativa); theoretical MW of the dimer printed as 79.2 kDa; The printed mass (39.6 kDa a monomer) fits the whole protein; source: recombinant, purified
stoichiometry N [6]: 2
